{"source": "patent US20010029022", "key": {"[1]": {"molecular_target": "GST-HPV16 E7 (UniProt P03129)", "sequence (P03129 whole entry)": "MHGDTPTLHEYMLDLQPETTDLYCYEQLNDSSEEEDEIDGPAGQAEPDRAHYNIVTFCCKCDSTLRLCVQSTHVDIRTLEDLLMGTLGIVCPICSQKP"}, "[2]": {"molecular_target": "His-p27 (UniProt P46527)", "sequence (P46527 whole entry, looked up)": "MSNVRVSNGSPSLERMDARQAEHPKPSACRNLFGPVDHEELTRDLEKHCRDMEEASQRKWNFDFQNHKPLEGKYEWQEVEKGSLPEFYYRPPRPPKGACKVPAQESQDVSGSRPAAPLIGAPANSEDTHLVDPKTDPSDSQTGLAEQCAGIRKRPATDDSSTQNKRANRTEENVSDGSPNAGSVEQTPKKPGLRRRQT"}, "[3]": {"tested_on": "histone H1"}}, "data": [{"substance": "CDK5 complexed with p25", "values": [{"measurement": "H1 phosphorylation by CDK5 complexed with p25, increase over controls", "setting": "[1]", "result": "a 4.5-fold increase over controls"}]}, {"substance": "cyclin E/CDK2 complex", "values": [{"measurement": "cyclin E/CDK2 phosphorylation of MBP-HPV 18 E1", "setting": "[2]", "result": "The phosphorylation of E1 was completely inhibited by the addition of p27 even in the presence of excess GST-16E7"}, {"measurement": "cyclin E/CDK2 phosphorylation of purified MBP-HPV 18 E1 fusion protein", "setting": "[1]", "result": "stimulated 2.3-fold by the addition of HPV 16E7"}, {"measurement": "cyclinE/CDK2 kinase activity with histoneH1 as the substrate, increase over controls", "setting": "[1]", "result": "a large increase (26-fold and 13-fold) over controls"}, {"measurement": "cyclinE/CDK2 kinase activity with pRb as the substrate, increase over background", "setting": "[1]", "result": "1.9-fold increase over background"}]}, {"substance": "cyclin A/CDK2 complex", "values": [{"measurement": "Km for histone H1 (cyclinA/CDK2 pre-incubated with HPV16-E7, Michaelis-Menten fit)", "setting": "[3]", "result": "a Km of 1.1+/-0.2 µM for histone H1"}]}]}
